B1: human PERK luminal domain (residues 105–403) (domain or fragment)
chain: LVIISTLDGRIAALDPENHGKKQWDLDVGSGSLVSSSLSKPEVFGNKMIIPSLDGALFQWDQDRESMETVPFTVESLLESSYKFGDDVVLVGGKSLTTYGLSAYSGKVRYICSALGCRQWDSDEMEQEEDILLLQRTQKTVRAVGPRSGNEKWNFSVGHFELRYIPDMETRAGFIESTFKPNENTEESKIISDVEEQEAAIMDIVIKVSVADWKVMAFSKKGGHLEWEYQFCTPIASAWLLKDGKVIPISLFDDTSYTSNDDVLEDEEDIVEAARGATENSVYLGMYRGQLYLQSSVRI
B2: BiP (natural protein)
chain: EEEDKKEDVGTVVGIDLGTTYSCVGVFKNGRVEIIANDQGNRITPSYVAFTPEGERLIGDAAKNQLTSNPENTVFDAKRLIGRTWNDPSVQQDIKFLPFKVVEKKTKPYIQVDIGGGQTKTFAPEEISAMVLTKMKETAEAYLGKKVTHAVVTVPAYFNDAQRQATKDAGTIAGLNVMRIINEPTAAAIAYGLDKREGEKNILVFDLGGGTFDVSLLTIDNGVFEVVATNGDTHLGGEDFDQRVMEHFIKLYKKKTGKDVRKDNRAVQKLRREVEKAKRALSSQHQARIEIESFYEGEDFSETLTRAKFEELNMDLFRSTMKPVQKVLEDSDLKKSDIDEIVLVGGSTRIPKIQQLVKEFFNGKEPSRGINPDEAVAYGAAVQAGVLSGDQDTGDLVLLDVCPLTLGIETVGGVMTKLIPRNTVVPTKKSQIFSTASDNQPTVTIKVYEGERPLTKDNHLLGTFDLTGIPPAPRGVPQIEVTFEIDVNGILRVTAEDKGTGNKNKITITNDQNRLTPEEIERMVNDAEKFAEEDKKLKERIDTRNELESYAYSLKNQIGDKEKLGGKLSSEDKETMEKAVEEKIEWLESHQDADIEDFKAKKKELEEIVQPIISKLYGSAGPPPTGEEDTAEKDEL

Experiments:
Assay in all cases: MST
BiP = molecular target: B2
[1] = molecular target: PERK luminal domain A378N (human, UniProt Q9NZJ5 105-403, A378N)
[2] = molecular target: PERK luminal domain L395N (human, UniProt Q9NZJ5 105-403, L395N)

Sequence of BiP (P11021 19-654): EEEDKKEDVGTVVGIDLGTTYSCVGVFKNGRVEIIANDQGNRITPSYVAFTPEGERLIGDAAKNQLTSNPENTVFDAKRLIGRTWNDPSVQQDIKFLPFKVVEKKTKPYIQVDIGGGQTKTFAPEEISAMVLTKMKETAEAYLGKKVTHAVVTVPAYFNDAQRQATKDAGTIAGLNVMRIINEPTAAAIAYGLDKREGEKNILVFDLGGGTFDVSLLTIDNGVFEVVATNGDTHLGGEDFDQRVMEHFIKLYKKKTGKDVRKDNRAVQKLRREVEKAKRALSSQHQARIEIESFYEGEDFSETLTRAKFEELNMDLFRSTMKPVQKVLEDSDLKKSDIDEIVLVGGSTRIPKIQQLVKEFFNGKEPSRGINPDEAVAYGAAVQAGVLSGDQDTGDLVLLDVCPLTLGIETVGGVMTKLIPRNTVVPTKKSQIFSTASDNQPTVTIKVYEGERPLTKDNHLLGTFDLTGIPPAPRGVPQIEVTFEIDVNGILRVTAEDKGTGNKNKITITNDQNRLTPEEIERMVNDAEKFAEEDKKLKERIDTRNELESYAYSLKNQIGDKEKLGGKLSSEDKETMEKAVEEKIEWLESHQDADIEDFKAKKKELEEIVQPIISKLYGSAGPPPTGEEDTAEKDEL

| Binder | Kd (BiP) | Kd [1] | Kd [2] |
| --- | --- | --- | --- |
| B1 | 2000 nM |  |  |
| B2 |  | 2300 nM | 1800 nM |
